Reference: patent publication US20240117326

T1: NifD-NifK proteins from K. oxytoca (expressed from MIT2.1 in E. coli JM109)
T1 chain 1: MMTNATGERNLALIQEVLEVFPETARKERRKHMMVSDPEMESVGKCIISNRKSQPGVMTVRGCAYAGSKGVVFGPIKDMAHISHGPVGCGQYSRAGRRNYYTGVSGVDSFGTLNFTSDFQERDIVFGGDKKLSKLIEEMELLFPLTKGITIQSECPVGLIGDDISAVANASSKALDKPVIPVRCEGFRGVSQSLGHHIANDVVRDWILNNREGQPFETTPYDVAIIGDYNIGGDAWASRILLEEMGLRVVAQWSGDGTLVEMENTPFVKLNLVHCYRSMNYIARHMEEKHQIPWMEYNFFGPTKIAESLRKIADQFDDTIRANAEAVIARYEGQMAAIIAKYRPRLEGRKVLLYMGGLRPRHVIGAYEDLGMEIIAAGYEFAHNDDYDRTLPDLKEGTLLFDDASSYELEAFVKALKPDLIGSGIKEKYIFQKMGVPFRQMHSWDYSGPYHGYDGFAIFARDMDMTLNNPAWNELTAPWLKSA
T1 chain 2: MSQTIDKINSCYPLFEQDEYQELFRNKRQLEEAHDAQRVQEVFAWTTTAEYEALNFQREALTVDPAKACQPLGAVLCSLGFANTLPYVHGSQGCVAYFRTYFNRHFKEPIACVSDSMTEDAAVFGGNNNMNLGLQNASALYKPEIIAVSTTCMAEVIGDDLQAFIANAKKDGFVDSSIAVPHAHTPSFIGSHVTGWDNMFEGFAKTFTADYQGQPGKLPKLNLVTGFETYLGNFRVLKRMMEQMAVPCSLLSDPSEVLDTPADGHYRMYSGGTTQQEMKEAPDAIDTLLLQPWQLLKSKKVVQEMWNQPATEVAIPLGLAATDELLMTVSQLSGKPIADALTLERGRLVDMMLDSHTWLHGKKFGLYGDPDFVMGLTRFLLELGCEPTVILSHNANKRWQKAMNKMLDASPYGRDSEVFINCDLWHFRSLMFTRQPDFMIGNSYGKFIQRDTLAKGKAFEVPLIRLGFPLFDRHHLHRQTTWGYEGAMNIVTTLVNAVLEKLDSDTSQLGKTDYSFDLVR

B1: M laminosus NifH (Genbank Accession No. Q47917) (protein)
chain: MTENIRQIAFYGKGGIGKSTTSQNTLAAMAEMGQRIMIVGCDPKADSTRLMLHSKAQTTVLHLAAERGAVEDLELEEVMLTGFRGVKCVESGGPEPGVGCAGRGIITAINFLEENGAYQDLDFVSYDVLGDVVCGGFAMPIREGKAQEIYIVTSGEMMAMYAANNIARGILKYAHSGGVRLGGLICNSRKVDREAELIENLAERLNTQMIHFVPRDNIVQHAELRRMTVNEYAPDSNQSQEYRALAKKIINNTKLTIPTPMEMDELEALLIEYGILDDDTKHADIIGKPAEASAK
B2: M thermautotrophicus NifH (Genbank Accession No. AAB86034) (protein)
chain: MVRKIAIYGKGGIGKSTTQQNTAAAMSYFHGKNVMIHGCDPKADSTRLILGGKMQTTMMDTLRELGEVACTPDKVIETGFGGIKCVESGGPEPGVGCAGRGVITAITLMERHGVYEKDLDFVFFDVLGDVVCGGFAMPVRDGKAEEIYIVASGEMMALYAANNICKGMVKYARQSGVRLGGIICNSRNVDGEKELLEEFCERIGTQMIHFVPRDNIVQKAEFNKKSVIEFDPECNQSQEYRELARKIIENKDFVIPEPMTMDEMEELVVKYGVMD
B3: Carboxydothermus pertinax NifH (Genbank Accession No. WP_075859892) (protein)
chain: MTRKIAIYGKGGIGKSTTQQNTAAALAYFYGKKVLIHGCDPKADCTRLILGGKPQETVMDTMRELGEDAVTIDRVVKTGFCGIKCVESGGPEPGVGCAGRGVITAISLMEELGAYTPDLDFIFFDVLGDVVCGGFAMPVREGKAQEIYIVASGEMMALYAANNICRGMVKYAEQSGVRLGGIICNSRNVDGERELMEEFCSKIGTQMIHFIPRDNIVQKAEFNRQTVTQFDPNCNQAQEYRELARKIIENDMFVIPKPMTMDEMENLVIKYGLLE
B4: H. modesticaldum NifH (Genbank Accession No. WP_012282218) (protein)
chain: MRQIAIYGKGGIGKSTTTQNTVSALAEMGKKVMIVGCDPKADSTRLILHSKAQATVMDLAREKGTVEDLELSDVLLTGFADIRCAESGGPEPGVGCAGRGVITAINFLEENGAYTPDLDYVFYDVLGDVVCGGFAMPIRENKAQEIYIVTSGEMMAMYAANNIARGILKYASSGKVRLGGLICNSRKVDKEYELIDELATRLGTQMIHFLPRDNQVQRAELRRMTVIEYSPDHPQADEYRALAKKIDENKKLVIPTPLTMDELEDLLIQYGILEDEETAAAKLG
B5: Geobacter sp. NifH (Genbank Accession No. WP_015837436) (protein)
chain: MRQIAIYGKGGIGKSTTTQNTVAGLASIGKKVMIVGCDPKADSTRLILHAKAQSTVMDLVRELGTVEDLELEDVMKVGYGDVKCVESGGPEPGVGCAGRGVITAINFLEENGAYTPDLDFVFYDVLGDVVCGGFAMPIREGKAEEIYIVCSGEMMAMYAANNIAKGILKYATSGKVRLAGLICNARKTDKEYELIDALAKKLGTQMIHFVPRDNQVQRAELRRMTVIEYSPEHPQAQEYRTLAQKIADNKMLVVPTPLEMEELEDLLMEFGIMEAEDESIVGVAEAAAV
B6: M. infernus NifH (Genbank Accession No. WP_013099459) (protein)
chain: MSFDEIAPNAKKVAIYGKGGIGKSTTTQNTAAALAYYYKLKGMIHGCDPKADSTRMILHGKPQETVMDVLREEGEEGVTLEKVRKVGFCGIYCVESGGPEPGVGCAGRGVITAVNLMKELGGYPDDLDFLFFDVLGDVVCGGFAMPLRDGLAKEIYIVSSGEMMALYAANNIAKGILKYAEQSGVRLGGIICNSRNVDGERELMEEFCDKLGTKLIHFIPRDNIVQKAEFNKMTVVEFAPDHPQALEYKKLGKKIMDNDELVIPTPLSMDELEKLVEKYGLYDK
B7: C. tepidum NifH (Genbank Accession No. WP_010933198) (protein)
chain: MRKVAIYGKGGIGKSTTTQNTVAGLAEAGKKVMVVGCDPKADSTRLLLGGLQQKTVLDTLREEGEEVELEDIIKEGYRNTRCTESGGPEPGVGCAGRGIITSVNLLEQLGAYDDEWELDYVFYDVLGDVVCGGFAMPIRDGKAEEIYIVCSGEMMAMYAANNICKGILKYADAGGVRLGGLICNSRKVDNEREMIEELARRLGTQMIHFVPRDNFVQRAEINRKTVIDFDPTHPQADEYRALAKKIDENKMFVIPKPLEIDELESLLIEFGIAN

Biological target: T1, NifD-NifK proteins from K. oxytoca …

Protein | acetylene reduction assay (ethylene production) in E. coli JM109 with modified MIT2.1
B1 | none of the JM109 strains carrying the modified MIT2.1 plasmids with the NifH variants reduced acetylene, instead showing the same background level of ethylene production as JM109 carrying the negative control plasmid pB-ori
B2 | none of the JM109 strains carrying the modified MIT2.1 plasmids with the NifH variants reduced acetylene, instead showing the same background level of ethylene production as JM109 carrying the negative control plasmid pB-ori
B3 | none of the JM109 strains carrying the modified MIT2.1 plasmids with the NifH variants reduced acetylene, instead showing the same background level of ethylene production as JM109 carrying the negative control plasmid pB-ori
B4 | none of the JM109 strains carrying the modified MIT2.1 plasmids with the NifH variants reduced acetylene, instead showing the same background level of ethylene production as JM109 carrying the negative control plasmid pB-ori
B5 | none of the JM109 strains carrying the modified MIT2.1 plasmids with the NifH variants reduced acetylene, instead showing the same background level of ethylene production as JM109 carrying the negative control plasmid pB-ori
B6 | none of the JM109 strains carrying the modified MIT2.1 plasmids with the NifH variants reduced acetylene, instead showing the same background level of ethylene production as JM109 carrying the negative control plasmid pB-ori
B7 | none of the JM109 strains carrying the modified MIT2.1 plasmids with the NifH variants reduced acetylene, instead showing the same background level of ethylene production as JM109 carrying the negative control plasmid pB-ori
